Data on eight molecules can be found in EP3922644A2 (The Texas A&M University System, dated 2021).

For orientation: EC50 means the concentration at which the effect is half-maximal. Read a high EC50 as a less potent agent.

For experiment [1], the target named is Fibrinogen-D fragment (human, plasmin digest) (human) (UniProt P02671). Put plainly: ITC (VP-ITC), peptide titrated into 10 µM Fg-D, one-site model, 27°C.
Experiment [2] deals with human fibrinogen (human) (UniProt P02671). Put plainly: apparent KD, solid phase binding assay, Efb coated 1 µg/well, Fg titrated 0-0.3 µM.
Experiment [3] has the same target. The experiment is described as follows: apparent affinity, ELISA, GST-tagged Coa fragment on immobilized Fg.
For experiment [4] the target is unchanged. Put plainly: ELISA, GST-tagged Coa fragment on immobilized Fg.
Experiment [5] shares this target. Put plainly: apparent KD, solid phase binding assay, DC2-Fg coated 1 µg/well, Fg titrated 0-0.3 µM.
Experiment [6] deals with T1, Fibrinogen-D fragment (human, plasmin digest) (human, UniProt P02671 124-225; P02675 164-491; P02679 89-437).
T1 construct: domain: D fragment; Made by digesting human Fg with plasmin for 4 h and gel filtration; also called Fg-D; Fg-D fragment
T1 sequence 1: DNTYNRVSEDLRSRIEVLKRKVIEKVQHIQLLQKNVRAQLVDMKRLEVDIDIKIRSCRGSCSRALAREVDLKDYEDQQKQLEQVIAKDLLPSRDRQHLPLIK
T1 sequence 2: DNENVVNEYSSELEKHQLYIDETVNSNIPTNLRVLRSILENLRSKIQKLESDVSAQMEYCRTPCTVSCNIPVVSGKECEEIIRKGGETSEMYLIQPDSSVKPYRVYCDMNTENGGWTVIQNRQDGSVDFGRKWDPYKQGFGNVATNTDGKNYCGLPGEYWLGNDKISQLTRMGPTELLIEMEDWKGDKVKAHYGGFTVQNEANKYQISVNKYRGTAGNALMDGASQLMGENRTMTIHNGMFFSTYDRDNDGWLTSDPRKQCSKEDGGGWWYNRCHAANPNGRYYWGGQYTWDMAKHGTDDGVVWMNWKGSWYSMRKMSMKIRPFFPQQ
T1 sequence 3: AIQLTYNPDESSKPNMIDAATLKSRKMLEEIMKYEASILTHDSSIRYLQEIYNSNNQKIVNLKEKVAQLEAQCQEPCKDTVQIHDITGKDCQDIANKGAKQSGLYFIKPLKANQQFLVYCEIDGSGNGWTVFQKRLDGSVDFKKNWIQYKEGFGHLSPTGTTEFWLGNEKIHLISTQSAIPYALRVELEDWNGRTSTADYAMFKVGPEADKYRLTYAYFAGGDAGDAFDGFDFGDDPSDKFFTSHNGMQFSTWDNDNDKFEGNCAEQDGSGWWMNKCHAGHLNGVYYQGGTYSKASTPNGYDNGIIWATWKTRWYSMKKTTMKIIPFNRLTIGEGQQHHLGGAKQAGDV
The experiment is described as follows: ITC (VP-ITC), peptide titrated into 10 µM Fg-D, one-site model, 27°C.

Experiment [7] addresses T2, Efb-N30-105, His-tagged recombinant protein (Staphylococcus aureus strain Newman, UniProt A6QG59 30-105).
T2 construct: range 30-105; not shown: polyhistidine tag (detected with anti-HIS-tag antibody)
T2 sequence (looked up): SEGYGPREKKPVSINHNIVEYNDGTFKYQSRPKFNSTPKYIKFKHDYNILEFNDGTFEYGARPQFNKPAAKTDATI
Put plainly: apparent Kd from half maximum binding in ELISA. A general note: In an ELISA, binding on a coated surface is turned into a signal by an enzyme label.

Experiment [8] deals with Efb-A30-67, GST-tagged recombinant protein (Staphylococcus aureus strain Newman, UniProt P08515 1-218 = GST; A6QG59 30-67). Put plainly: apparent Kd from half maximum binding in ELISA.
For experiment [9], the target named is T3, rEfb-O (Efb 68-98), GST-tagged recombinant protein (Staphylococcus aureus strain Newman).
T3 construct: also called Efb-O68-98; not shown: N-terminal GST tag from pGEX-5x-1
T3 chain: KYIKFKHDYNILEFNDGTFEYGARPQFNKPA
The experiment is described as follows: apparent Kd from half maximum binding in ELISA.

sCoa-RI3, synthetic peptide Coa 502-528: the Kd in experiment [1] was determined as 124 nM.

On to “Efb as coated in the solid phase binding assay of the DC proteins (from UniProt A6QG59 30-165)”, for which the Kd in the experiment with human fibrinogen (human) [2] amounted to 1 nM.

“Coa-R (Coa 506-636), GST-tagged (from UniProt P08515 1-218)”: the Kd with human fibrinogen (human) [3] amounted to 0.8 nM.

On to sCoa-RV1, synthetic peptide Coa 610-636, for which the Kd in experiment [1] came to 139 nM.

Molecule “Coa-C (Coa 311-636), GST-tagged (from UniProt P08515 1-218)” yielded an EC50 in the experiment with human fibrinogen (human) [4] of 7.5 nM.

Take “DC2-Fg, DC2 with the fibrinogen binding motif Efb-O inserted after Gln 301 (designed binder)”: the Kd with human fibrinogen (human) [5] amounted to 10 nM.

In experiment [6], ETNAYNVTTHANGQVSYGARPTYKKPS (also called peptide CoaRI) [sCoa-RI, synthetic peptide Coa 506-532] displayed a Kd of 88 nM.

B1: FBE5-F11 (Fc fusion)
VH: QVQLQESGGGVVQPGRSLRLSCAASGFTFSSYGMHWVRQAPGKGLEWVAVISYDGSNKYYADSVKGRFTISRDNSKNTLYLQMNSLRAEDTAVYYCAKDLASSGFDYWGQGTLVTVSS
VL: QSVLTQPPSVSAAPGQKVTISCSGSSSNIGNNYVSWYQQLPGTAPKLLIYDNNKRPSGIPDRFSGSKSGTSATLGITGLQTGDEADYYCGTWDSSLSAEVFGGGTKLTVL
notes: Tested as scFv-Fc (human scFv from HAL9/HAL10 recloned into pCSE2.6-hIgG1-Fc-XP, made in HEK293-6E)
Take B1: the Kd in experiment [7], in [8] and in [9] was roughly 0.1 nM in each case.
